Residue numbers refer to the chain shown, from its start. In names and notes the source's numbering stands.

B1: H1H21234N-N297Q (antibody, human IgG1, V domains shown)
VH: QVQLQESGPGLVKPSETLSLTCTVTGGSISRNYWSWIRQPPGKGLEWIGYIYYSGSIDYNPSLKSRVTISVDTSKNQFSLKLSSMTAADTAVYYCARDRWNWKYGMDVWGQGTTVIVSS
VL: EIVLTQSPGTLSLSPGERATLSCRASQTVRNNYLAWYHQKPGQAPRLLIYGASSRATGIPDRFSGSGSGTDFTLTISRLEPEDFTVYYCHQYGNSPWTFGQGTKMEIKR
B2: H1H21234N (antibody, human IgG1, V domains shown)
VH: B1 VH
VL: B1 VL
B3: H2aM25695N (antibody, mouse IgG2a, V domains shown)
VH: B1 VH with D58N, T73M, S83N, M85V
VL: B1 VL with N32S, T85A, H90Q, N94S, P96Y
B4: H1H27739P-N297Q (antibody, human IgG1, V domains shown)
VH: EVQLVESGGGLVQPGGSLRLSCTASGFTFSSYAMSWVRQAPGKGLEWVSAISGTGSSTYFTDSVKGRFAISRDNSKNTLYLQMNSLRAEDTAVYYCAKDGEWLSTVTLFDYWGQGTLVTVSS
VL: EIVMTQSPATLSVSPGERATLSCRASQSVSSNLAWYQQKPGQAPRLLIYGASTRATGIPARFSGSGSGTDFTLTISSLQSEDFALYYCQQYFIWPPHPTFGPGTKVDIKR
B5: H1H27747P-N297Q (antibody, human IgG1, V domains shown)
VH: QVQLVESGGAVVQPGRSLRLSCAASGFTFSYYGMHWVRQAPGKGLEWVAVISYDGSKKYYADSVKGRFTISRDNSKNTLYLQMNSLRAEDTAVYYCAKDLTVDFYYGMDVWGQGTTVTVSS
VL: DIQMTQSPSSVSASVGDRVTITCRASQGISSWLAWYQQKPGKAPKLLIYATSSLQSGAPSRFSGSGSGTDFTLTISSLQPEDFATYFCQQANSFPYTFGQGTKLEIKR
B6: H1H27729P-N297Q (antibody, human IgG1, V domains shown)
VH: QVQLVESGGGLVKPGGSLRLSCAASGFIFSDYYMSWIRQAPGKGLEWVSYISSSGTTIYGDSVKGRFTMSRDNAKNSLYLQMNSLRAEDTAVYYCARNYALFDYWGQGTLVTVSS
VL: DIQMTQSPSSLSASVGDRVTITCQASQDISKYLNWYQQKPGKAPKLLIYYTSNLETGVPSRFSGSGSGTDFTFTISSLQPEDIATYYCHQSDYLPFTFGPGTKVDIKR
B7: H1H27734P-N297Q (antibody, human IgG1, V domains shown)
VH: EVQLVESRGGLVQPGGSLRLSCAASGFTFSSYAMSWVRQAPGKGLEWVSAISGSGGSTFYADSVKGRFTISRDNSKNTVYLQMNSLRAEDTAVYYCAKALVLRFLEWLGDYWGQGTLVTVSS
VL: DIQMTQSPSTLSASVGDRVTITCRASQSISSWLAWFQQKPGKAPKLLIYKASSLESGVPSRFSGSGSGTEFTLTISSLQPDDFATYYCQQYKSYWTFGQGTKVEIKR
B8: H1H21227N-N297Q (antibody, human IgG1, V domains shown)
VH: QVQLVQSGAEVKKPGASVKVSCKVSGYTLTELSIHWVRQVPGKGLEWMGGFDPEEGETIFAQEFRDRVTLTEDTSPDTAYMELSSLKSEDAAVYYCTTPRYCNNGICYDYWGQGTLVTVSS
VL: DIQMTQSPSSLSASVGDRVTITCRASQSISNYLNWYQQKPGKAPKLLIYTASSLQSGVPSRFSGSGSGTDFTLTISSLQTEDFATYYCQQSYSNFPITFGQGTRLEIKR
B9: H1H21231N (antibody, human IgG1, V domains shown)
VH: EVQLVESGGGLVQPGGSLRLSCAASGFTFSDHYMDWVRQAPGKGLEWVGRTRNKANSHTTEYTASVTGRFTISRDDSRNSLYLQMNSLKTEDTAVYYCVRAGIIGTLFDYWGQGTLVTVSS
VL: B8 VL with S7F, N31S, Y32F, Y36F, L46F, T50A, T80P, N94S, F95P
B10: H1H21231N-N297Q (antibody, human IgG1, V domains shown)
VH: B9 VH
VL: B8 VL with S7F, N31S, Y32F, Y36F, L46F, T50A, T80P, N94S, F95P
B11: H1H21227N-N297D (antibody, human IgG1, V domains shown)
VH: B8 VH
VL: B8 VL
B12: H1H21227N (antibody, human IgG1, V domains shown)
VH: B8 VH
VL: B8 VL

endogenously expressed human MSR1 on PMA-treated THP-1 cells (human), sequence (P21757 whole entry): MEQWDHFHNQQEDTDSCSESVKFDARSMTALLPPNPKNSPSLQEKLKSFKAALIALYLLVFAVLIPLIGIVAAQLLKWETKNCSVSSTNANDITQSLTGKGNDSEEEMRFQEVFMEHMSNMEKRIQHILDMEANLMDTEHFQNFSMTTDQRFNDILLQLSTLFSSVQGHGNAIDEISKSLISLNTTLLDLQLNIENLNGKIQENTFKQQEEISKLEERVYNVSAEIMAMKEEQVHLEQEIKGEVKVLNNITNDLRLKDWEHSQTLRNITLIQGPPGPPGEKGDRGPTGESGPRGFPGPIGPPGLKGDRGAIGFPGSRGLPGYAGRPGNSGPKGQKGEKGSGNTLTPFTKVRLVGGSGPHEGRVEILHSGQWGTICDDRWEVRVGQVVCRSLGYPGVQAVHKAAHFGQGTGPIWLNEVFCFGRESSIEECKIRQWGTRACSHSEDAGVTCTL
mouse MSR1 on RAW264.7 cells (mouse), sequence (P30204 whole entry): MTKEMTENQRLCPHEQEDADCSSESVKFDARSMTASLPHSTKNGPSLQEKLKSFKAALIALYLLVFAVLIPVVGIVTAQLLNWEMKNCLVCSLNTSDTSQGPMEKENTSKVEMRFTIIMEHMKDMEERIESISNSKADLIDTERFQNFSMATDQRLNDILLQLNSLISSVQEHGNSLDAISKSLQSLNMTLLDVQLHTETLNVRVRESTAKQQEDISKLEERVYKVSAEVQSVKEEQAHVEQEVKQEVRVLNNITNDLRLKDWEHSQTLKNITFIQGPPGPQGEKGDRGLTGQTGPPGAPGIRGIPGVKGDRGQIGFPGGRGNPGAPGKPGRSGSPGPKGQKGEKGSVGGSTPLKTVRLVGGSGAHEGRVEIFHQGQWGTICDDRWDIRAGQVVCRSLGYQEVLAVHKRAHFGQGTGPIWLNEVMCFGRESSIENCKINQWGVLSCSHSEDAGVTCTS

The first assay deals with full length monkey MSR1 on HEK293.mfMSR1 cells (Macaca fascicularis). Briefly: ECL cell binding, HEK293.mfMSR1 cells.
full length monkey MSR1 on HEK293.mfMSR1 cells (Macaca fascicularis), sequence (chain, as listed by the source): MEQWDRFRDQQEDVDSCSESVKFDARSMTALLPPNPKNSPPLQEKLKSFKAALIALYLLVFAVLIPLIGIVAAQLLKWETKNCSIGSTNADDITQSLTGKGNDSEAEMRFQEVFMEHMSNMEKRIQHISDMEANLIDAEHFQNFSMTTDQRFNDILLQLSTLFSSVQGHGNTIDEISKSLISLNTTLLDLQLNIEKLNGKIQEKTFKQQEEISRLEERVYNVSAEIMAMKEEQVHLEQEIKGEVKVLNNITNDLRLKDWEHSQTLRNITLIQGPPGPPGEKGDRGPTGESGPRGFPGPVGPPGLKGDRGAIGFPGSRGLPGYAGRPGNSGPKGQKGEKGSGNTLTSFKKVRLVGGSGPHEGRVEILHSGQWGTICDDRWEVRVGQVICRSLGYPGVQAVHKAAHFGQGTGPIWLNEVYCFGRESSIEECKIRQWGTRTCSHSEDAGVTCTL
As to B1, the ratio of 11 nM antibody binding signal (RLU) to isotype control was 35.
The same measure, in the same setting: with B2 the figure was 31; with B3, 45; with B4, 20.
As for B5, the ratio of 11 nM antibody binding signal (RLU) to isotype control was found to be 21.
The same measure, in the same setting: for B6 the value was 6; for B7, 28; for B8, 23.
In the case of B9, the ratio of 11 nM antibody binding signal (RLU) to isotype control came out at 75.
For the molecule B10, the ratio of 11 nM antibody binding signal (RLU) to isotype control turned out to be 69.
With B11, the ratio of 11 nM antibody binding signal (RLU) to isotype control was 25.
In the case of B12, the ratio of 11 nM antibody binding signal (RLU) to isotype control was found to be 26.

A further assay deals with full length human MSR1 with a C-terminal Myc tag on HEK293.Myc.hMSR1 cells (human) (UniProt P21757). Briefly: ECL cell binding, HEK293.Myc.hMSR1 cells.
full length human MSR1 with a C-terminal Myc tag on HEK293.Myc.hMSR1 cells (human), sequence (P21757 whole entry): as the sequence (P21757 whole entry) above
With B1, the ratio of 11 nM antibody binding signal (RLU) to isotype control worked out at 43.
On the same count and under the same terms, with B2 the figure was 32; with B3, 35.
For the molecule B4, the ratio of 11 nM antibody binding signal (RLU) to isotype control turned out to be 22.
In the case of B5, the ratio of 11 nM antibody binding signal (RLU) to isotype control was 26.
As for B6, the ratio of 11 nM antibody binding signal (RLU) to isotype control amounted to 17.
For B7, the ratio of 11 nM antibody binding signal (RLU) to isotype control worked out at 40.
Regarding B8, the ratio of 11 nM antibody binding signal (RLU) to isotype control turned out to be 37.
B9: the ratio of 11 nM antibody binding signal (RLU) to isotype control amounted to 61.
Regarding B10, the ratio of 11 nM antibody binding signal (RLU) to isotype control was 64.
For B11, the ratio of 11 nM antibody binding signal (RLU) to isotype control was 34.
Turning to B12, the ratio of 11 nM antibody binding signal (RLU) to isotype control came out at 37.

A further assay has as its target mouse MSR1 on RAW264.7 cells (mouse) (UniProt P30204). Briefly: flow cytometry, RAW264.7 cells, 10 ug/mL. A general note: Flow cytometry measures light scatter and fluorescence of single cells or particles in a stream.
As to B1, the MFI is 7050 and the S/N came out at 3.
The molecule B4 gave an MFI of 3270 and a S/N of 1.
In turn, B5 yielded an MFI of 3630 and a S/N of 1.
B6 showed an MFI of 3480 and a S/N of 1.
The molecule B7 returned an MFI of 4780 and a S/N of 1.
As to B8, the MFI was determined as 12800 and the S/N worked out at 5.
In the case of B10, the MFI turned out to be 3580 and the S/N came to 1.

Another assay has as its target endogenously expressed human MSR1 on PMA-treated THP-1 cells (human) (UniProt P21757). Put plainly: ECL cell binding, PMA-treated THP-1 cells.
Turning to B1, the ratio of 11 nM antibody binding signal (RLU) to isotype control came out at 25.
For the molecule B2, the ratio of 11 nM antibody binding signal (RLU) to isotype control came out at 18.
On the same count and under the same terms, with B3 the figure was 8.
Consider B4, for which the ratio of 11 nM antibody binding signal (RLU) to isotype control came to 9.
On to B5, for which the ratio of 11 nM antibody binding signal (RLU) to isotype control was found to be 13.
On the same count and under the same terms, for B6 the value was 8; for B7, 21; for B8, 5.
For B9, the ratio of 11 nM antibody binding signal (RLU) to isotype control worked out at 42.
As for B10, the ratio of 11 nM antibody binding signal (RLU) to isotype control came to 45.
Consider B11, for which the ratio of 11 nM antibody binding signal (RLU) to isotype control is 6.
As to B12, the ratio of 11 nM antibody binding signal (RLU) to isotype control was determined as 7.

For a further assay, the target named is human MSR1 extracellular domain expressed with a N-terminal nonahistidine tag (His9-hMSR1; R&D Systems, Cat #2708-MS) (human) (UniProt P21757). Briefly: competition ELISA; 100 nM antibody, competitor Ac-LDL, plate-coated His9-hMSR1. A general note: In an ELISA, binding on a coated surface is turned into a signal by an enzyme label.
human MSR1 extracellular domain expressed with a N-terminal nonahistidine tag (His9-hMSR1; R&D Systems, Cat #2708-MS) (human), sequence (P21757 other isoform, or with tags, fused parts or gaps): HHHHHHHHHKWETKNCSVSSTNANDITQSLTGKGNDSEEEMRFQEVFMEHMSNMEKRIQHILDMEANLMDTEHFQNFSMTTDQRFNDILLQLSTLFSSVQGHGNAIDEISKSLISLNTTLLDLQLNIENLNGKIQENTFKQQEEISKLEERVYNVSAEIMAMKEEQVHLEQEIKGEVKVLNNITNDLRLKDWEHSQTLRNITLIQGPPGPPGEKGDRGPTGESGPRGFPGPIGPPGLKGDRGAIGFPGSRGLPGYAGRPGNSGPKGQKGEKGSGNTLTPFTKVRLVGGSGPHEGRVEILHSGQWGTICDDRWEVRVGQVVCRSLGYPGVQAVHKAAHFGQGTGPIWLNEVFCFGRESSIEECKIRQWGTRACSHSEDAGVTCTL
Take B1: the % Blocking amounted to 75%.
With B2, the % Blocking was determined as 70%.
Regarding B3, the % Blocking worked out at 65%.
The same measure, in the same setting: with B4 the figure was -47%; with B5, -44%; with B6, 8%.
Take B7: the % Blocking is -38%.
With B8, the % Blocking is 105%.
Regarding B9, the % Blocking is -62%.
Turning to B10, the % Blocking is -60%.
As to B11, the % Blocking was determined as 101%.
Still for that read-out and setting: with B12 the figure was 105%.

For a further assay the target is unchanged. Put plainly: competition ELISA; 1 µM antibody, competitor 10 nM Ox-LDL, plate-coated His9-hMSR1.
Turning to B4, the % Blocking is -41%.
Same read-out and setting: with B5 the figure was -31%; with B6, 36%; with B7, -15%.

Another assay has the same target. Briefly: competition ELISA; 300 nM antibody, competitor biot-AGE-BSA, plate-coated His9-hMSR1.
For B1, the % Blocking is -27%.
As for B2, the % Blocking is 21%.
For the molecule B3, the % Blocking is 16%.
As to B4, the % Blocking was -9%.
Still for that read-out and setting: for B5 the value was -2%.
Same read-out and setting: for B6 the value was 15%.
As for B7, the % Blocking was -4%.
The same measure, in the same setting: with B8 the figure was 96%.
For B9, the % Blocking is -44%.
Turning to B10, the % Blocking is -50%.
On the same count and under the same terms, for B11 the value was 97%; for B12, 99%.

A further assay shares this target. Put plainly: competition ELISA; 500 nM antibody, competitor 10 nM Ox-LDL, plate-coated His9-hMSR1.
For the molecule B1, the % Blocking is 49%.
Take B2: the % Blocking worked out at 98%.
On to B3, for which the % Blocking worked out at 96%.
Consider B8, for which the % Blocking turned out to be 97%.
On to B9, for which the % Blocking was 22%.
Take B10: the % Blocking is 26%.
With B11, the % Blocking amounted to 99%.
B12: the % Blocking was found to be 100%.

The record behind these values is patent publication US20230285581A1.
